# The domain aggregation screens of Martell et al. (2025)
# Assay: soluble fraction after stress (log2 fold change); higher = more stays soluble; pooled small domains, quantitative proteomics
# Conditions: stress: 75 degC
# 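Further: 20 min heating vs room temperature control held 20 min.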
row,Sequence,soluble fraction (log2)
1,HMDAKNNPQVMAQIRAILTAKGLSEDEVKTRLKTKNIDVDKMTDQEIIAQRPAIEAIINEMEQEKKQKMG,0.0493
2,HMDALPLIQLEKEIKDFISQGQKINAIKHYRNVMDRDFGTTISLKLAKYTVDALAQNIKVDLTKGYDQ,-1.01
3,HMDALTLSIDAQGALYWNGQPVSRELAAQRFVEAAAQRPQPELHLRADQNVAYRHVAMTLADASRAGLTR,-0.248
4,HMDANAYTYKVSEDTDTRTGEKIFLVKVAEKLSRKEYIVVNNYMKSLGSYYSKFKHAFLFKENPTEKL,-0.55
5,HMDANLGEIFKVYEQEIGALTPFVREEMLDAIDHYPRDWILDAIRESAKSNARNWKYTLAILKRWKAEG,-0.284
6,HMDAPIIRLLNSLVQRAVTTTASDIHIEPFEGETKVRMRIDGVIIDYVTLQRALHQPLIARIKIMSNLD,-0.15
7,HMDAPKTGSLVVSKAVNYGSWSGFTFRLHGTSDKGNSVDVTATTGSDGKAYFKDIEIGTYTLEEVN,-0.406
8,HMDAQEAAWARKMMETLPEKQKLSVALRIEEGLSFKEIGEIIGSSEGAARVNYFHGIRRLRELL,-0.789
9,HMDAQNLQDQLFGFLKANPTQAYPAQTLADGLRLDDANAFTKVVQALAALERGGKVKVNEEGAFQYDAEK,0.43
10,HMDARSTHIAAIHVLKSKLQLQDSDYRALLLTLTGQTSSKDLSEHQRRAVRNHMQQLAERMGVVQ,-1.46
11,HMDATFKVRVSVPDLNIRSGPGTNYAATGRFTGVGVFTITAVQSGQGSSSGWGKLKSGAGWIALDYAKR,-3.78
12,HMDATIGGFKITDSAIYSGVKNNVNAGVRGTYIDKDGQIAFGDSNSYLKYYKDTDGKWKLEVSASSVKF,0.454
13,HMDAVDKDGNHMTFKKWSEQLQEAFHALELYDTTRAKQILSELVKFQVDSDITKSLKAIITNIDDMMA,-1.13
14,HMDAYDEVTTLSQMVASGKNTTVAHLKHLKEYHQTDYLRQAVEWLLSNRKNVSFSVDEVMQEVHN,-0.0471
15,HMDAYLPETVQKLLDVMDFDVPYSAAQLMEKLGLKSRASFRKLYLLPALEKNLIAMGVPDKPTSRNQTYIR,-0.787
16,HMDAYSYFIRTYPLVDDPLIGDIRRIFAETHDGNPAGDADVRHILWRLLFERELYPTLDEATADWY,-2.39
17,HMDDEAVQIMTLHISKGLEFDVVFALGLVSRTPESKEIEELEAEKQRQLYVAMTRAEKWLIVAA,0.202
18,HMDDEDLAFLQREFVSYQQAMDYYGLGYKPVVRLSHISGSVYKIGKKVLIRRNIFEEYLRNHV,0.0397
19,HMDDFGERLRKLRVAQDLTQQQLGEKLGVVPSTIGKYEKVKDSYPSIEVLIKLSDFFSVSTDYLLKG,-2.19
20,HMDDFTEVLLQYLKDHDGYSSIHDKTDAETIYNTFGVSKKTFKKAVGDLYKKRLIVLEEEGIRLLG,-0.151
21,HMDDISLEEIKYISSKLETKVNEIEELLVRYYDGETNEAEEKELKEFFAQADVPAHLLAEKRLFMQLASQ,0.245
22,HMDDKVGKVFNYVQEKILTGEWDIGDKITPEISLSKELGVSRSVVREAIKKFVALNILSRTQGGGTYVNNL,-0.848
23,HMDDNMNEQWKMILNSIAKKGSVTRQETEKILGIGQTRAHVLLKAMIHAGMIKAVGDGKKRRYVR,-2.28
24,HMDDNRSLSDLAQQVFKRENIQVSRDTLSLLVSRLGSDRAVSRQEIEKLALFAGSNGKLTEEDIHNALG,0.0459
25,HMDDPISSMVNRIRLAFGLSVTDLAAVLGVERPTIYSWLKDGSTPAPARLTRVRQVLSLADTW,-0.729
26,HMDDPITVAYRETEDAIAQVQREGFPVEMPPANSYIRRIQHELAGRFNLDSESYGDEPERRVRIRPQQ,-0.107

row,Sequence,soluble fraction (log2)
1,HMDDPTVILFDPKNGQRKIVKWKAGLTLYSARRSAGISSAAEATIQRAGKSLSGRTATALEPGDVIRW,-1.74
2,HMDDSSLFGRHTGIGFIVDDIDSGYQTLLAKGVSFEMPPTEQPWGGILALMKDPDGNIFYLD,-0.0389
3,HMDDTRLLSEIGLSQRVLNALRARGIERVGQVLAMRPDQLLGIRNFGPRALQELRERLQENGYTEGPLFSG,0.379
4,HMDDVIDVYATYDVSPTNQISNIKLYSDAAHANPVTGEAGKSYNDITEGHPGYQFRWSGTTWVPI,-1.04
5,HMDDVIEVEGKVVEVLPNTKFIVELANSHKITAHISGKLRMNYIRIMKGDNVTVEMSPYDLTKGRIIWRS,-0.165
6,HMDDVVVLPFTAEFARMSSDDFVREILVGKIGMKRFVVGYNHRFGSGQQGDFASLQRMQGELGFVAVRVG,0.368
7,HMDDVYMVPVKDIAINDLKQEFEKLGIPNIQNTIPDKDLNFFIVRKDDLALVNYAIEKTMER,0.0193
8,HMDEAETELIRRMVSEHPPTTKRERDIVQMRLRGYLFVEIGEAYGISFQRAAQIYNAAVEKIKEYWD,-0.242
9,HMDEEQIASRRALIMRAAREIMETQGMEALSIRKIAAMIQQTPGIIYHYFSGKEELMLAVVQEGYH,-0.00144
10,HMDEFAGSAKPLADGAAPAGYDVKGNKDSMKYHEPGGRWYDATVAEVWFKTAADAEAAGFVKAGA,0.167
11,HMDEFHLSERERQILNLLVLGHTYKHIASDLNIAYATVNKHVSNVYAKLRVQSASEAVALAIRKGL,-0.992
12,HMDEFTIILEDAGSQKIAVIKEVRVLNSSLGLKEAKDLVDATPATIMEKADKATADKAKAAFEAAGAKVTI,-0.257
13,HMDEIDYSKYSITTSNRIINIDGVQSKVELFDVSGRSIQSTMVTGKFSSRPLNAGFYIIHVDGYSVKVSV,-1.19
14,HMDELIKQVANYIINNRATINETAGAFGKSVSSIKKYINDADKLQRIDFELYQKVKEVQKIVELNGQI,-0.396
15,HMDEMEFQKYVDQNLKQKGISLTAEAKAELLLRLGGDTMLLHSAIEKLDLYGEKNLNLNDIKHLVSLNSDV,0.254
16,HMDENMQRYNTMEEIKKEFPYAEDTVRKLIAMGAIRGGGKVDANGDPADMDLSRDMLRMMVFNDRAGAYG,0.524
17,HMDEPGTGFKWREDVLLRVMEANGIDTSHRDDFVRHAVKFDNDDNLYLKKAEIEDAAAAWVSEHS,0.161
18,HMDERLAKLTPQERKILDLIAEGATNRQIGTELHLAEKTVKNYVSNMLMKLGMSRRTEAAVFAVKASIN,-1.9
19,HMDERLLRLYERELQFLREGADEFAQAYPKVAGHLGLNSQSMGDPFIERLLEGLGFLTARIQLQLESEF,-0.47
20,HMDEWFPVNDDYKFMVGDEVRTPDGLVKVVATHNDSATFYGKIITPIHDDVLKGETYEYRSYEAQVLA,-0.331
21,HMDEWKRKELWDAIARLPKIQRMVVTMRTTENLPYKEIAKIMNISENSAKVNYHHAVEALKIFF,-2.84
22,HMDEYGEVQALQRAGQTSEALARADRHIAAHPNDPQMRFVKANLLSAGGRAGEAETLLVQLTRD,-0.0543
23,HMDFDLIAIFEEQFARALSPIEINIIKEWKNSNYSDDMIVKALKEAVKSQVFNFRYIERILINWSQNG,-1.9
24,HMDFDVELTSAGTAKVKVIKAVREATGLGLKEAKDLVDNAPSIVKEGLDEAAANDLKAALEETGASVTL,0.0189
25,HMDFEEGAVKWFNTKKGYGFITRDQGDDIFVHFRNIKAQSRRSLTDGERVTFVVTEGDKGLQADHVSPV,-0.411
26,HMDFGHWAAHKLEQMSEYRLRHGEAVAIGIALDVLYSVRQGLLARPAAERILSLLERLGFTLFDPELKS,0.224

row,Sequence,soluble fraction (log2)
1,HMDFLKSVDLSKYSKVESLILSHLSKGDFDIDDFIRSFSLGTDEVTRAIVSLEIEGIILRKGNRIFRKKS,-1.38
2,HMDFMNSEIKKIVEDLKLTLQSLNYTKNEIKSILPVINKETDNLIKKEKYASFENLLRLAMNHLDNN,-0.751
3,HMDFTPDQIARLDDIISRYKDKPGGLIPVLEEAQVALEYLPIGVQKRIAKGLNLPLSRVYGVVTFYSFFTM,-0.0122
4,HMDFVKGDTVVFIDAFMPDHLMTIHKVQGEGILLDGNHKFALAHLIRHASTVELNAKRRLSLTEQS,-2.42
5,HMDGASLLDIDGDGKVTPTIDGLLLMRWQFGTRGAALIGGISFPAGALRTTVNAIELHMRRLSETT,-0.699
6,HMDGDVAVKGGDGVLEVRLANAANVRVYNLAGRLMADYTGTELHMPLPKGVYMVVAGDNRTKVVV,-0.476
7,HMDGEINPYTGREYVTNSVRMHPRRIGYVQVYSRKDHKWTDMTEWAFLGEQERKKVLLGKAYEPPVYL,-1.91
8,HMDGEMRRKRILQLLSEQTKPLSGTALAKQFGVSRQVIVQDIALLKSKEPAIISTYRGYVLGR,-1.25
9,HMDGFAEFWSAYPKKVGKGAAEASWRKHRPPLQTVLDAVKRQAESDQWRKDGGQFIPNPATWLNQKRWEDD,-0.0375
10,HMDGIIIPDVSGKSYAEAVATLNEKGFKVEKGEDAGSSLAKDLVSYTNPAAGNRAKSGATISVFVSTGANA,0.407
11,HMDGKTALQEIVASSGWSPPEYKVSESGPDHDKDFVAYAIVNGVAYPEGHGKSKREAEQVAARIAFEALSK,-0.0295
12,HMDGMRASDMVRAALAGAGKTQKELAEHMGWTPQNLSGRLKNNSLTFDELSKALHFAGYEVSMSDANGAG,0.0394
13,HMDGNVPSVEGKPLSGAKYILETYGYKTGTVTEVNSEDVPAGIVISQNPARGTTLANGGSVNLQVSLG,0.645
14,HMDGPGAGGRFLAEDLGTGKMTLEALQRHYVTLVYSRTGKYEETARRLEIDRRTVKKYLDEELLAELRET,0.0914
15,HMDGQGIRSITPEYYLSDSATKMPDASSSGWKSVPDDYIDKHYYWVRSKILWDDGTYTTTTPVL,-0.17
16,HMDGRVQATAEKLRAALDRLARSSVGSPMIERQLTVAALAREARVGRNAIYANHRDILDELIRVRQQRRA,0.155
17,HMDGTAKVAHMLVNELETFNRLKKHEIAYMLHIQPETLSRILNKLTRNGTIEIEKNSVVILNIQELKEIY,-1.95
18,HMDGVNRDKIEYRLDDLYYLKGSDAPYTGKVFEEWSGQQRVETNYIDGKLDGLSESWHENGQKASEVNY,0.486
19,HMDHFLRRFQVEGLNLEKLLRLAAEREMDLLQVRRSGRRMTGLVAEKRLPELEELAAQGGWALRLGEY,-0.843
20,HMDHSSLIKKLRLERGLSQKKLAQGISQRSTLASFENNATKISYNILIQYLDRMNVTLEEYQFMLDGNNL,-2.27
21,HMDHWQSVNSALELLEVSRRTLYDYISRKKLQTKKEGKYRYVWIDDDVIEEIKTSKSAYIEINN,-2.21
22,HMDIAATTVKQKIRTLLADEDAARPLSDQKIADALAEDGIDVARRTVAKYREELGIEPSWARKR,0.106
23,HMDIDLGAVEEQAVKGSGPGGQKMNKTSSGVLLRYRLGEELVLVKWTRERQHSLNRFLALRELVDEIEAR,0.976
24,HMDIFFEKIFNILIGYNQNQENLISEKSILNFHLSHKSNSNFEYIPDEKTPKYIWKYLSNYNLLE,-0.439
